Values quoted from earlier work, collected in article PMC4965862.

Molecular target: Cys45 (UniProt position 45, AFTGICQGELD)
Conditions: reduced enzyme (Cys45 thiol/thiolate)

Substance: Alkyl hydroperoxide reductase E (AhpE), one-cysteine peroxiredoxin (Mycobacterium tuberculosis)
- pKa: 5.2
